{"source": "patent US20240368549A1", "about": "“ENHANCEMENT OF HEMATOPOIETIC STEM CELL AND HEMATOPOIETIC PROGENITOR CELL EXPANSION WITH AGENTS THAT ACTIVATE TAM RECEPTORS” (CANADIAN BLOOD SERVICES, priority 2021, published 2024)", "molecules": {"B1": {"name": "GAS6: natural ligand of the AXL receptor, growth arrest-specific protein 6, added to cultures at 10 ng/mL (protein, UniProt Q14393 31-678, looked up)", "Growth arrest-specific …": "ALLPAREATQFLRPRQRRAFQVFEEAKQGHLERECVEELCSREEAREVFENDPETDYFYPRYLDCINKYGSPYTKNSGFATCVQNLPDQCTPNPCDRKGTQACQDLMGNFFCLCKAGWGGRLCDKDVNECSQENGGCLQICHNKPGSFHCSCHSGFELSSDGRTCQDIDECADSEACGEARCKNLPGSYSCLCDEGFAYSSQEKACRDVDECLQGRCEQVCVNSPGSYTCHCDGRGGLKLSQDMDTCEDILPCVPFSVAKSVKSLYLGRMFSGTPVIRLRFKRLQPTRLVAEFDFRTFDPEGILLFAGGHQDSTWIVLALRAGRLELQLRYNGVGRVTSSGPVINHGMWQTISVEELARNLVIKVNRDAVMKIAVAGDLFQPERGLYHLNLTVGGIPFHEKDLVQPINPRLDGCMRSWNWLNGEDTTIQETVKVNTRMQCFSVTERGSFYPGSGFAFYSLDYMRTPLDVGTESTWEVEVVAHIRPAADTGVLFALWAPDLRAVPLSVALVDYHSTKKLKKQLVVLAVEHTALALMEIKVCDGQEHVVTVSLRDGEATLEVDGTRGQSEVSAAQLQERLAVLERHLRSPVLTFAGGLPDVPVTSAPVTAFYRGCMTLEVNRRLLDLDEAAYKHSDITAHSCPPVEPAAA"}}, "key": {"[1]": {"tested_on": "Umbilical cord blood (UCB) CD34+ cells", "experiment": "Expansion of UCB CD34+ cells cultured 14 days with SCACs, GAS6 or inhibitors", "format": "cell-based, human", "experimental": "(§1) Umbilical cord blood (UCB) CD34+ cells were cultured in StemSpan™ SFEM (StemCell Technologies) in the presence of different SCACs for 14-days and net fold expansion of TNC, CD34+ cells CD34+CD45RA− cells, and EPCR^High was calculated based on respective population on day-0 (e.g. net TNC day 14/TNC day 0). Control STFL cultures consisted of the same complete media without small molecules. Unless indicated otherwise, all cultures were supplemented with Stem Cell Factor, Flt-3 and Thrombopoietin at 100 ng/ml. All cultures also contained 10 μg/mL low-density lipoprotein (LDL, Stem Ce, Technologies) and 1% penicillin-streptomycin (Gibco). […] The improvement in HSPC expansion provided by the SCACs is exemplified with X2A in FIGS. 2A-2D. […] Culture done with adult CD34+ mobilized peripheral blood stem cells (mPBSC, CAT #70060.2, Stem Cell Technologies) also contained IL-6 (100 ng/ml) as additional cytokine (FIG. 9).\nTo investigate the impact of AA2P and/or SCACs on expression of AXL and its activation level, HSPC were culture in STFL with or without AA2P or the indicated SCAC for 14 days (FIG. 4F). In some cultures, the AXL kinase inhibitor Bemcentinib or a neutralizing antibody was added to cultures at day 10, and the impact on HSPC expansion was investigated in indicated cultures at day 14. Proteins level were investigated by western blot analysis or intracellular flowcytometry analysis following common procedures with anti-AXL [Goat IgG anti-AXL (Cat #AF154) or anti-p-AXL (Cat #AF2228) or anti-GAS6 (rabbit IgG, Cat #67202S, Cell Signaling Tech.) and appropriate secondary antibodies, R&D systems). […] AXL is expressed by CD34+CD45RA− HSPCs cultured in both X2A and C6 culture (FIG. 5A). […] This support that, even in the absence of exogenous GAS6 , AA2P alone or in combination with other small molecule (i.e. stem cell agonist such as UM171, SR1 . . . ) is capable of driving enough increased endogenous expression of GAS6 and AXL to support the improved expansion of CD34+CD45RA− HSPCs through para-and/or autocrine activation of AXL on HSPCs.\n(§2) In each case, GAS6 was added to the cultures from days 7 to 14.\nCell expansion measured after 14 days of culture in STFL culture (FIG. 7A) and in X2A cultures (FIG. 7B). Indeed, as shown therein, the rise in cell growth (TNC) and expansion of HSPC subsets (CD34+ cells, CD34+CD45RA−, EPCRHigh cells) induced by GAS6 can be accomplished by adding GAS6 in cultures at various time point, as early as day 0 and as late as day 10, preferably at day 7."}, "[2]": {"tested_on": "NSG mice", "experiment": "Engraftment in NSG mice of X2A-expanded cells with GAS6 or GAS6 neutralizing antibody", "format": "in vivo", "experimental": "Mice group were transplanted with the progeny of 750 expanded CD34+ cells after 14 days of culture. The groups were; […]-expanded cells, […]-expanded cells supplemented with GAS6 (10 ng/ml) or a GAS6 neutralizing antibody (GAS6 Ab) from day-10 to day-14. As shown therein, addition of GAS6 to CB HSPC expansion cultures improves the engraftment achieved from the ex vivo expanded HSPCs."}, "[3]": {"tested_on": "CD34+ mobilized peripheral blood stem cells (mPBSC)", "experiment": "Expansion of adult mobilized peripheral blood stem cell (mPBSC) cultures", "format": "cell-based, human", "conditions": "GAS6 10 ng/ml, day 7 to 14; STFL and SCAC cultures", "experimental": "as §1, §2"}}, "note": "“Also recorded” adds a separate entry of the source."}
{"molecule": "Nc1nc(Nc2ccc3c(c2)CC[C@@H](N2CCCC2)CC3)nn1-c1cc2c(nn1)-c1ccccc1CCC2", "note": "[Bemcentinib, reference compound]", "values": [{"measurement": "effect of AXL kinase inhibition on ability of X2A and C6 to expand HSPCs", "setting": "[1]; added at day 10, read at day 14, normalized to DMSO", "result": "reduction; also recorded: decreased"}]}
{"molecule": "Nc1nc(=O)n(-c2cccc(-c3ccccc3)c2)cc1Cl", "note": "[Bobcat339, reference compound]", "values": [{"measurement": "effect of TET inhibition on cell growth", "setting": "[1]; 30 μM, day-10 to day-14", "result": "reduced cell growth"}]}
{"molecule": "B1", "values": [{"measurement": "HSPC expansion with GAS6 in X2A, X2B, STFL or SM6 culture", "setting": "[1]; FIGS. 5D-5F", "result": "improved HSPC expansion"}, {"measurement": "expansion of TNC and HSPC subsets, valproic acid (VPA)-containing cultures", "setting": "[1]; GAS6 10 ng/mL, days 7 to 14", "result": "improved"}, {"measurement": "expansion of the CB HSPC population, GAS6 with single stem cell agonists or agonist cocktails", "setting": "[1]; GAS6 10 ng/mL, days 7 to 14", "result": "strongly increases"}, {"measurement": "expansion of HSPC subsets, control STFL cultures", "setting": "[1]; GAS6 10 ng/ml, days 7 to 14", "result": "improved"}, {"measurement": "expansion of TNC and HSPC subsets, AA2P-containing cultures", "setting": "[1]; GAS6 10 ng/ml, days 7 to 14", "result": "improved"}, {"measurement": "expansion of TNC and HSPC subsets, C6-containing cultures", "setting": "[1]; GAS6 10 ng/ml, days 7 to 14", "result": "improved"}, {"measurement": "expansion of TNC and HSPC subsets, SM6-containing cultures", "setting": "[1]; GAS6 10 ng/ml, days 7 to 14", "result": "improved"}, {"measurement": "expansion of TNC and HSPC subsets, SR1-containing cultures", "setting": "[1]; GAS6 10 ng/ml, days 7 to 14", "result": "improved"}, {"measurement": "expansion of TNC and HSPC subsets, UM171-containing cultures", "setting": "[1]; GAS6 10 ng/ml, days 7 to 14", "result": "improved"}, {"measurement": "expansion of TNC and HSPC subsets, X2A-containing cultures", "setting": "[1]; GAS6 10 ng/ml, days 7 to 14", "result": "improved"}, {"measurement": "expansion of CB TNC and HSPC subsets, GAS6 added at different time point", "setting": "[1]; added day 0, 4, 7 or 10, STFL with or without X2A, day 14", "result": "superior expansion"}, {"measurement": "HSPC expansion, exogenous GAS6 added to SCAC and C6 cultures", "setting": "[1]; compared to SCACs and C6 alone, 10 ng/mL", "result": "further improved HSPC expansion"}, {"measurement": "levels of human platelets and human % CD45+ leucocytes", "setting": "[2]; X2A cultures + GAS6 10 ng/ml, 3-weeks and 16-weeks post-transplant", "result": "significantly superior"}, {"measurement": "long-term human BM engraftment (% CD45+)", "setting": "[2]; X2A cultures, 18-weeks after transplantation", "result": "improved"}, {"measurement": "distribution of human lineages downstream HSC", "setting": "[2]; X2A+ GAS6 group, BM", "result": "normal distribution"}, {"measurement": "proportion of CD34+ HSPC", "setting": "[2]; X2A+ GAS6 mice, BM", "result": "significantly superior"}, {"measurement": "human CFU", "setting": "[2]; X2A+ GAS6 primary transplants", "result": "significantly superior"}, {"measurement": "net number of human CD34+ BM cells", "setting": "[2]; X2A+ GAS6 primary transplants", "result": "significantly superior"}, {"measurement": "serial engraftment activity in secondary transplants", "setting": "[2]; primary X2A+ GAS6 grafts vs X2A grafts, 12-weeks", "result": "superior serial engraftment activity"}, {"measurement": "expansion of TNC and HSPC subsets in mPBSC cultures with GAS6", "setting": "[3]", "result": "further increased"}]}
